# Laboratory results taken from publication PMC11218997, “Human cytomegalovirus deploys molecular mimicry to recruit VPS4A to sites of virus assembly” (PLOS Pathogens, 2024).
# T1: VPS4A MIT domain (residues 1–84) (human, UniProt Q9UN37 1-84)
# T1 chain: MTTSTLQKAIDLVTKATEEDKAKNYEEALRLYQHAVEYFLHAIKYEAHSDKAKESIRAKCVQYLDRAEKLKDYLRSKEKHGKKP
# T2: VPS4A MIT domain (residues 1–84) (human, UniProt Q9UN37 1-84)
# T2 construct: human VPS4A, MIT domain, residues 1-84 of UniProt Q9UN37; cloned into pOPT3G with an N-terminal GST and a human rhinovirus 3C site; the tag was removed with 3C protease; also called VPS4 MIT domain; source: E. coli T7 Express lysY/Iq, purified (glutathione Sepharose, 3C cleavage, SEC); not shown: GST, N-terminal, cleaved
# T2 sequence (looked up): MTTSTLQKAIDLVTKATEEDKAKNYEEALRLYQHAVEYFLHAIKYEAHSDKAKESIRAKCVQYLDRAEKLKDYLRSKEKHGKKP
# Experiments:
# [1] = molecular target: T1, VPS4A MIT domain (residues 1–84); test: ITC
# [2] = molecular target: T2, VPS4A MIT domain (residues 1–84); test: ITC; titrants (GST-pUL71, GST-CHMP6 or peptides) titrated into VPS4A MIT domain in the cell; 25°C; 50 mM HEPES pH 8, 100 mM NaCl, 0.5 mM TCEP; 19×2 μL or 12×3 μL injections; one-site binding model; details: both partners purified
# [3] = system: pUL71 (YN fusion, TB71-YN); test: Bimolecular fluorescence complementation in TB71-YN infected MRC-5 cells; assay type: cell-based, HCMV; details: MRC-5 infected with TB71-YN, MOI 1, 5 dpi
# From the text: HCMV strains AD169 [92], Toledo [93], Merlin [94], VR1814 [95] and TB40/E [96] and two clinical isolates (isolates 19 and 20, kindly provided by C. Sinzger, Ulm University Hospital, Germany) were used in this study. This panel was chosen as it covers the most commonly used cell culture passaged strains and two isolates that grow highly cell associated. In addition, bacmid derived viruses were used. Reconstituted virus from bacterial artificial chromosome (BAC) clone TB40-BAC4 of the endotheliotropic HCMV strain TB40/E (accession number EF999921.1.) served as wild type virus (WT) in this study. Generation and propagation of recombinant viruses, TBstop71 and TBrev71 have been described elsewhere. […] The recombinant virus TB71-YN used for bimolecular fluorescence complementation (BiFC) assay, was generated by markerless BAC mutagenesis from BAC clone TB40-BAC4 by inserting the sequences corresponding to a (GGGGS)2-linker sequence, the c-myc-tag and the N-terminal fragment of the yellow fluorescent protein (YFP) variant Citrine, comprising amino acids 1–173 (YN), before the stop codon of the UL71 open reading frame. […]
Molecule,Kd [1] [µM],Kd [2] [µM],dH [2] [kcal/mol],stoichiometry N [2],Citrine fluorescence (BiFC) [3]
"EQIELPEVPSEPLPEK (domain or fragment, human, UniProt Q96FZ7 166-181, looked up, human CHMP6 MIM2; pGEX4T2, annealed primers pGEX CHMP6 MIM2 fwd and rev; also called GST-tagged CHMP6 MIM2 motif; source: E. coli, purified following bacterial expression; not shown: GST, N-terminal, kept) [GST-CHMP6 MIM2]",15.3,5.54,-2.37,0.84,–
"YC-VPS4A-FLAG: VPS4A-FLAG fused to the C-terminal half of Citrine (protein, left off: Citrine residues 156-239 with A206K (YC), N-terminal, kept | FLAG, C-terminal, kept) MTTSTLQKAIDLVTKATEEDKAKNYEEALRLYQHAVEYFLHAIKYEAHSDKAKESIRAKCVQYLDRAEKLKDYLRSKEKHGKKPVKENQSEGKGSDSDSEGDNPEKKKLQEQLMGAVVMEKPNIRWNDVAGLEGAKEALKEAVILPIKFPHLFTGKRTPWRGILLFGPPGTGKSYLAKAVATEANNSTFFSVSSSDLMSKWLGESEKLVKNLFELARQHKPSIIFIDEVDSLCGSRNENESEAARRIKTEFLVQMQGVGNNNDGTLVLGATNIPWVLDSAIRRRFEKRIYIPLPEEAARAQMFRLHLGSTPHNLTDANIHELARKTEGYSGADISIIVRDSLMQPVRKVQSATHFKKVCGPSRTNPSMMIDDLLTPCSPGDPGAMEMTWMDVPGDKLLEPVVCMSDMLRSLATTRPTVNADDLLKVKKFSEDFGQES",–,–,–,–,Citrine fluorescence was detected
"YC-VPS4A-FLAG-L64D (protein, left off: Citrine residues 156-239 with A206K (YC), N-terminal, kept | FLAG, C-terminal, kept) MTTSTLQKAIDLVTKATEEDKAKNYEEALRLYQHAVEYFLHAIKYEAHSDKAKESIRAKCVQYDDRAEKLKDYLRSKEKHGKKPVKENQSEGKGSDSDSEGDNPEKKKLQEQLMGAVVMEKPNIRWNDVAGLEGAKEALKEAVILPIKFPHLFTGKRTPWRGILLFGPPGTGKSYLAKAVATEANNSTFFSVSSSDLMSKWLGESEKLVKNLFELARQHKPSIIFIDEVDSLCGSRNENESEAARRIKTEFLVQMQGVGNNNDGTLVLGATNIPWVLDSAIRRRFEKRIYIPLPEEAARAQMFRLHLGSTPHNLTDANIHELARKTEGYSGADISIIVRDSLMQPVRKVQSATHFKKVCGPSRTNPSMMIDDLLTPCSPGDPGAMEMTWMDVPGDKLLEPVVCMSDMLRSLATTRPTVNADDLLKVKKFSEDFGQES",–,–,–,–,Citrine fluorescence was detected
